In US20080026996A1, “Selective Vpac2 Receptor Reptide Agonists” (ELI LILLY AND COMPANY, priority 2004, published 2008):
Where no end group is shown, it is not given here. The star is where a group is joined. Hexanoyl = CCCCCC(=O)*

Target: T1, human VPAC2 receptor (human, UniProt P41587 24-438)
T1 sequence (looked up): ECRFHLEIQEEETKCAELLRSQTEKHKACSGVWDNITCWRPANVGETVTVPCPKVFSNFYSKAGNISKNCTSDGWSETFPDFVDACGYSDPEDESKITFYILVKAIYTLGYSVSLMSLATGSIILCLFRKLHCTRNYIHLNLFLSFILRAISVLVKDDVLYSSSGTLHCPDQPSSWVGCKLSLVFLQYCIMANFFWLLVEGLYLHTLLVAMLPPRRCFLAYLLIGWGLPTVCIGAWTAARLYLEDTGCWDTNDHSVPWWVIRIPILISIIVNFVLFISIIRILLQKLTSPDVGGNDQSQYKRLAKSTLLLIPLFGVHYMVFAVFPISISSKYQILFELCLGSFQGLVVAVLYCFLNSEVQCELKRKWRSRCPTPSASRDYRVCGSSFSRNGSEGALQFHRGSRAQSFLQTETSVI
Assay: cell-based or functional assay

Hexanoyl-HSDAVFTDNYTRLRAQLAAQKYLQSIKNKRYGGPSSGAPPPS [P142]
EC50 cAMP, Alpha Screen: 150 pM

Hexanoyl-HSDAVFTDNYTRLRKQVAAKKYWQSIKNKRYGGPSSGAPPPS [P230]
EC50 cAMP, Alpha Screen: 300 pM

Hexanoyl-HSEAVFTDNYTRLRKQVAAKKYLQSIKNKRYGGPSSGAPPPS [P224]
EC50 cAMP, Alpha Screen: 140 pM

Hexanoyl-HSDAVFTDNYTRLRKQVAAKKYLQSIKNKRFGGPSSGAPPPS [P203]
EC50 cAMP, Alpha Screen: 140 pM

Hexanoyl-HSDAVFTDNYTRLAKQVAAKKYLQSIKNKRYGGPSSGAPPPS [P173]
EC50 cAMP, Alpha Screen: 250 pM

Hexanoyl-HSDAVFTDNYTRLRRQVAAKKYLQSIKNKRYGGPSSGAPPPS [P176]
EC50 cAMP, Alpha Screen: 280 pM

Hexanoyl-HSDAVFTRNYTRLRKQVAAKKYLQSIKNKRYGGPSSGAPPPS [P162]
EC50 cAMP, Alpha Screen: 11100 pM

Hexanoyl-HSDAVFTDNYTRLFKQVAAKKYLQSIKNKRYGGPSSGAPPPS [P175]
EC50 cAMP, Alpha Screen: 680 pM

Hexanoyl-HSDAVFTDNYTRLRKQVAAYKYLQSIKNKRYGGPSSGAPPPS [P147]
EC50 cAMP, Alpha Screen: 130 pM

Hexanoyl-HSDAVFTDNYTRLRFQVAAKKYLQSIKNKRYGGPSSGAPPPS [P180]
EC50 cAMP, Alpha Screen: 1040 pM

Hexanoyl-HSDAVFTDNYTRLKKQVAAKKYLQSIKNKRYGGPSSGAPPPS [P171]
EC50 cAMP, Alpha Screen: 820 pM

Hexanoyl-HSDAVFTDNYTRLRLQVAAKKYLQSIKNKRYGGPSSGAPPPS [P179]
EC50 cAMP, Alpha Screen: 240 pM

Hexanoyl-HSDAVFTEEYTRLQKQVAAKQYLQSIKNKRYGGPSSGAPPPS [P165]
EC50 cAMP, Alpha Screen: 940 pM

Hexanoyl-HSDAVFTDNYTRLRKQVAAKFYLQSIKNKRYGGPSSGAPPPS [P186]
EC50 cAMP, Alpha Screen: 150 pM

Hexanoyl-HSDAVFTDNYTRLLAKLAAQKYLQSIKNKRYGGPSSGAPPPS [P197]
EC50 cAMP, Alpha Screen: 90 pM

Hexanoyl-HSDAVFTDNYTRLRKQVAAIKYLQSIKNKRYGGPSSGAPPPS [P149]
EC50 cAMP, Alpha Screen: 410 pM

Hexanoyl-HSDAVFTYNYTRLRKQVAAKKYLQSIKNKRYGGPSSGAPPPS [P163]
EC50 cAMP, Alpha Screen: 5530 pM

Hexanoyl-HSDAVFTANYTRLRKQVAAKKYLQSIKNKRYGGPSSGAPPPS [P158]
EC50 cAMP, Alpha Screen: 110 pM

Hexanoyl-HSDAVFTDNYTRLRKQVAAKRYLQSIKNKRYGGPSSGAPPPS [P182]
EC50 cAMP, Alpha Screen: 290 pM

Hexanoyl-HSDAVFTKNYTRLRKQVAAKKYLQSIKNKRYGGPSSGAPPPS [P160]
EC50 cAMP, Alpha Screen: 13200 pM

Hexanoyl-HSDAVFTDNYTRLRKQVAAWKYLQSIKNKRYGGPSSGAPPPS [P153]
EC50 cAMP, Alpha Screen: 110 pM

Hexanoyl-HSDAVFTENYTRLRKQVAAKKYLQSIKNKRYGGPSSGAPPPS [P159]
EC50 cAMP, Alpha Screen: 170 pM

Hexanoyl-HSDAVFTDNYTRLRKQVAAVKYLQSIKNKRYGGPSSGAPPPS [P146]
EC50 cAMP, Alpha Screen: 170 pM

Hexanoyl-HSDAVFTDNYTRLRKQVAALKYLQSIKNKRYGGPSSGAPPPS [P151]
EC50 cAMP, Alpha Screen: 70 pM

Hexanoyl-HSDAVFTDNYTRLRKQVAAKLYLQSIKNKRYGGPSSGAPPPS [P185]
EC50 cAMP, Alpha Screen: 180 pM

Hexanoyl-HSDAVFTDNYTRLLKQVAAKKYLQSIKNKRYGGPSSGAPPPS [P174]
EC50 cAMP, Alpha Screen: 260 pM

Hexanoyl-HSDAVFTDNYTRLLAQLALQKYLQSIKNKRYGGPSSGAPPPS [P195]
EC50 cAMP, Alpha Screen: 250 pM

Hexanoyl-HSDAVFTDQYTRLLAKLALQKYLQSIKQKRYGGPSSGAPPPS [P192]
EC50 cAMP, Alpha Screen: 180 pM

Hexanoyl-HSDAVFTDNYTRLRKQVAAKAYLQSIKNKRYGGPSSGAPPPS [P184]
EC50 cAMP, Alpha Screen: 220 pM

Hexanoyl-HSDAVFTDNYTRLRKQVALKKYLQSIKNKRYGGPSSGAPPPS [P155]
EC50 cAMP, Alpha Screen: 240 pM

Hexanoyl-HSDAVFTDNYTRLRKQVAATKYLQSIKNKRYGGPSSGAPPPS [P152]
EC50 cAMP, Alpha Screen: 170 pM

Hexanoyl-HSDAVFTDNYTRLRKQVAAKQYLQSIKNKRYGGPSSGAPPPS [P183]
EC50 cAMP, Alpha Screen: 140 pM

Hexanoyl-HSDAVFTDNYTRLRKQVAAAKYLQSIKNKRYGGPSSGAPPPS [P181]
EC50 cAMP, Alpha Screen: 130 pM

Hexanoyl-HSDAVFTDNYTRLRKQVAAFKYLQSIKNKRYGGPSSGAPPPS [P148]
EC50 cAMP, Alpha Screen: 100 pM

Hexanoyl-HSDAVFTDNYTRLLAKVALQKYLQSIKNKRYGGPSSGAPPPS [P196]
EC50 cAMP, Alpha Screen: 230 pM

Hexanoyl-HSDAVFTLNYTRLRKQVAAKKYLQSIKNKRYGGPSSGAPPPS [P161]
EC50 cAMP, Alpha Screen: 4000 pM

Hexanoyl-HSDAVFTDNYTRLLAKLALQKYLQSIKNKRYGGPSSGAPPPC [P164]
EC50 cAMP, Alpha Screen: 110 pM
